From patent US20140336126A1 (INSTITUT PASTEUR, published 2014) come the findings set out here.

The labels stand for the following.
B1: type 1 protein phosphatase catalytic subunit PP1β (enzyme, UniProt P62140 1-327, looked up)
chain: MADGELNVDSLITRLLEVRGCRPGKIVQMTEAEVRGLCIKSREIFLSQPILLELEAPLKICGDIHGQYTDLLRLFEYGGFPPEANYLFLGDYVDRGKQSLETICLLLAYKIKYPENFFLLRGNHECASINRIYGFYDECKRRFNIKLWKTFTDCFNCLPIAAIVDEKIFCCHGGLSPDLQSMEQIRRIMRPTDVPDTGLLCDLLWSDPDKDVQGWGENDRGVSFTFGADVVSKFLNRHDLDLICRAHQVVEDGYEFFAKRQLVTLFSAPNYCGEFDNAGGMMSVDETLMCSFQILKPSEKKAKYQYGGLNSGRPVTPPRTANPPKKR
notes: Endogenous protein or transfected Flag-tagged PP1β (ImaGenes), as said under assay; also called PP1cβ; Flag-tagged-PP1β
B2: myosin phosphatase targeting subunit 1 (MYPT1) (other)
chain: MKMADAKQKRNEQLKRWIGSETDLEPPVVKRQKTKVKFDDGAVFLAACSSGDTDEVLKLLHRGADINYANVDGLTALHQACIDDNVDMVKFLVENGANINQPDNEGWIPLHAAASCGYLDIAEFLIGQGAHVGAVNSEGDTPLDIAEEEAMEELLQNEVNRQGVDIEAARKEEERIMLRDARQWLNSGHINDVRHAKSGGTALHVAAAKGYTEVLKLLIQAGYDVNIKDYDGWTPLHAAAHWGKEEACRILVDNLCDMEMVNKVGQTAFDVADEDILGYLEELQKKQNLLHSEKRDKKSPLIESTANMDNNQSQKTFKNKETLIIEPEKNASRIESLEQEKVDEEEEGKKDESSCSSEEDEEDDSESEAETDKTKPLASVTNANTSSTQAAPVAVTTPTVSSGQATPTSPIKKFPTTATKISPKEEERKDESPATWRLGLRKTGSYGALAEITASKEGQKEKDTAGVTRSASSPRLSSSLDNKEKEKDSKGTRLAYVAPTIPRRLASTSDIEEKENRDSSSLRTSSSYTRRKWEDDLKKNSSVNEGSTYHKSCSFGRRQDDLISSSVPSTTSTPTVTSAAGLQKSLLSSTSTTTKITTGSSSAGTQSSTSNRLWAEDSTEKEKDSVPTAVTIPVAPTVVNAAASTTTLTTTTAGTVSSTTEVRERRRSYLTPVRDEESESQRKARSRQARQSRRSTQGVTLTDLQEAEKTIGRSRSTRTREQENEEKEKEEKEKQDKEKQEEKKESETSREDEYKQKYSRTYDETYQRYRPVSTSSSTTPSSSLSTMSSSLYASSQLNRPNSLVGITSAYSRGITKENEREGEKREEEKEGEDKSQPKSIRERRRPREKRRSTGVSFWTQDSDENEQEQQSDTEEGSNKKETQTDSISRYETSSTSAGDRYDSLLGRSGSYSYLEERKPYSSRLEKDDSTDFKKLYEQILAENEKLKAQLHDTNMELTDLKLQLEKATQRQERFADRSLLEMEKRERRALERRISEMEEELKMLPDLKADNQRLKDENGALIRVISKLSK
notes: also called HA-MYPT1; HA-tagged-MYPT1
B3: HA-Optn Δ131-297 (other)
chain: MSHQPLSCLTEKEDSPSESTGNGPPHLAHPNLDTFTPEELLQQMKELLTENHQLKEAMKLNNQAMKGRFEELSAWTEKQKEERQFFEIQSKEAKERLMALSHENEKLKEELGKLKGKSERSSEDPTDDSREVEALNLQVTSLFKELQEAHTKLSKAELMKKRLQEKCQALERKNSAIPSELNEKQELVYTNKKLELQVESMLSEIKMEQAKTEDEKSKLTVLQMTHNKLLQEHNNALKTIEELTRKESEKVDRAVLKELSEKLELAEKALASKQLQMDEMKQTIAKQEEDLETMTILRAQMEVYCSDFHAERAAREKIHEEKEQLALQLAVLLKENDAFEDGGRQSLMEMQSRHGARTSDSDQQAYLVQRGAEDRDWRQQRNIPIHSCPKCGEVLPDIDTLQIHVMDCII

Assay [1] deals with B2. Kind of assay: anti-Flag immunoprecipitation of Flag-PP1β, transfected HEK-293T cells (FIG. 4B).
Assay [2] concerns the target T1, Optineurin (Optn), wild type (human, UniProt Q96CV9 1-577).
T1 construct: Full-length wild-type human Optn; also called Optn WT; HA-Optn
Kind of assay: TAP and co-immunoprecipitations, title of FIG. 4.

The target of assay [3] is B2. Put plainly: anti-MYPT1 immunoprecipitation, anti-HA Western blot, transfected HeLa cells (FIG. 4D). (In general: In western blotting, separated proteins are transferred to a membrane and probed.)

With B1, the binding result in assay [1] is “binds”.

For B2, the binding result in assay [2] is reported as “binds”.

With B3, the binding result in assay [3] was “no binding”.
